Reference: patent US9274110B2, “Diagnosis method of active tuberculosis” (priority 2011, dated 2016)

Details: cell wall of M. smegmatis overexpressing LipY vs control mycobacteria; 0.5 mM substrate, 40 min, 35° C.

B1: LipY: triacylglycerol hydrolase LipY (Rv3097c) of Mycobacterium tuberculosis, SEQ ID NO: 3 (protein, listed as Mycobacterium tuberculosis)
chain: PEVVFIHGSVVSYVVALPEVMSAAATDVASIGSVVATASQGVAGATTTVLAAAEDEVSAAIAALFSGHGQDYQALSAQLAVFHERFVQALTGAAKGYAAAELANASLLQSEFASGIGNGFATIHQEIQRAPTALAAGFTQVPPFAAAQAGIFTGTPSGAAGFDIASLWPVKPLLSLSALETHFAIPNNPLLALIASDIPPLSWFLGNSPPPLLNSLLGQTVQYTTYDGMSVVQITPAHPTGEYVVAIHGGAFILPPSIFHWLNYSVTAYQTGATVQVPIYPLVQEGGTAGTVVPAMAGLISTQIAQHGVSNVSVVGDSAGGNLALAAAQYMVSQGNPVPSSMVLLSPWLDVGTWQISQAWAGNLAVNDPLVSPLYGSLNGLPPTYVYSGSLDPLAQQAVVLEHTAVVQGAPFSFVLAPWQIHDWILLTPWGLLSWPQINQQLGIAASDIHHHHHH
Lipase activity: degradation of para-Nitrophenyl stearate, absorbance at 405 nm: demonstrating the lipase activity
